These results are taken from patent publication US10450570B2, “Compositions and methods for controlling vasculature” (YALE UNIVERSITY, priority 2016, dated 2019).

One test relates to HDLECs. Description: Glycolytic flux measurement (5-3H-glucose). Type of test: cell-based, human. The procedure:
Glycolysis was measured as previously described. Briefly, subconfluent HDLECs cultured in 12-well plates were incubated with 1 ml/well EBM2 medium (containing appropriate amount of serum and supplement) with 80 μCi/mmol 5-^3H-glucose (Perkin Elmer) for 2-3 hr. Then 0.8 ml/well medium was transferred into glass vials with hanging wells and filter papers soaked with H2O. After incubation in a cell culture incubator for at least 2 days to reach saturation, filter papers were taken out and the amount of evaporated ^3H2O was measured in a scintillation counter. Glucose oxidation, glutamine oxidation and fatty acid oxidation were measured essentially as reported. For measurement of glucose uptake, HDLECs were incubated with 2-[1-^14C]-deoxy-D-glucose (2.5 μCi/ml, Perkin Elmer) for 10 min. before PBS washing (at least 3 times to get rid of all radioactive medium) and then lysis with 500 μL 0.1 N NaOH. 400 μl NaOH cell lysate for each sample was transferred to scintillation vials containing scintillation liquid and measured.

For test [1], the system named is HK2 and other glycolytic enzymes in HDLECs. Description: Western blot of glycolytic enzyme expression in HDLECs. The following applies: protein. Type of test: cell-based, human. The procedure:
(§1) Human dermal lymphatic endothelial cells (HDLECs, HMVEC-dLyNeo-Der Lym Endo EGM-2MV) and Pooled human umbilical vein endothelial cells (HUVECs) were purchased from Lonza and cultured in EBM2 basal medium with EGM-2 MV BulletKit. Both cell types were tested negative for mycoplasma in Lonza. Culture medium was changed every the other day. Tissue culture plates were coated with 0.1% gelatin (Sigma) for 30 min at 37° C. and washed with Dulbecco's Phosphate-Buffered Saline (Life Technologies) before cell plating. For siRNA-mediated gene knockdown, FGFR1 siRNA (ON-TARGETplus human FGFR1 siRNA, Dharmacon; Hs_FGFR1_6, Qiagen), FGFR3 siRNA (Hs_FGFR3_6, Qiagen), HK2 siRNA (s6562 human HK2 siRNA, Life Technologies), c-Myc siRNA (ON-TARGETplus human Myc siRNA, Dharmacon), AllStar negative control siRNA (Qiagen), and ON-TARGETplus Non-targeting pool (Dharmacon) were transfected by lipofectamine RNAimax reagent (Life Technologies). Human FGF2 was provided by Kaken Pharmaceutical Co, Ltd (Japan) and ordered from Peprotech. Human VEGFC, VEGFD, IGF1, IGF2 and PDGFBB were purchased from Peprotech. To assay the effect of FGFR1 knockdown on glycolytic enzyme expression, HDLECs, transfected with control or FGFR1 siRNA 3 days in advance, were replated and collected for protein analysis 24 hr later when the cell confluency reached ˜80%. […] ImageJ was used for densitometry quantification of western blot bands.

Test [2] has as its system FGF2-induced ERK activation in HDLECs. Description: FGF2-induced ERK activation, Western blot of phosphorylated and total ERK. The note with it: HDLECs infected with adenovirus, serum-starved, stimulated with FGF2. It is filed as cell-based, human. The protocol: as §1, with “bands. […]” for “bands.”
(In western blotting, separated proteins are transferred to a membrane and probed.)

Test [3] has as its system tail skin lymphatic formation. Description: Tail skin lymphatic formation in neonatal mice after adenovirus injection. Type of test: in vivo. The following applies: adenovirus injected into mouse pups at P0 and P1, examined at P6. The text has this:
Adenovirus encoding GFP, empty CMV vector, sFGFR1-IIIC (Murakami, M. et al., 118, 3355-3366, (2008)), HK2 (Wu, R. et al. Circulation research 108, 60-69, (2011)), or Myc (from Vector Biolabs) for in vitro experiments was amplified in 293A cells according to the user manual of ViraPower™ Adenoviral Expression System (Life Technologies). Virus was tittered using Adeno-X™ Rapid Titer Kit (Clontech Laboratories). For in vivo experiments, LacZ- or sFGFR1-IIIC was amplified and purified at University of North Carolina virus vector core. Neonatal pups were injected i.p. with 5×10^8 FFU of LacZ or sFGFR1-IIIC virus at P0 and P1. Tail skin was harvested at P6 using a method published previously (Xu, Y. et al., J Cell Biol 188, 115-130, (2010)).

B1: PDGFBB: platelet-derived growth factor-BB, purchased from Peprotech (protein, UniProt P01127 82-190, looked up)
Platelet-derived growth …: SLGSLTIAEPAMIAECKTRTEVFEISRRLIDRTNANFLVWPPCVEVQRCSGCCNNRNVQCRPTQVQLRPVQVRKIEIVRKKPIFKKATVTLEDHLACKCETVAAARPVT
In the case of B1, the glycolytic flux entry in the test on HDLECs is recorded as “reduced flux”.

B2: VEGFC: Human VEGFC growth factor purchased from Peprotech (protein, UniProt P49767 112-227, looked up)
Vascular endothelial growth …: AHYNTEILKSIDNEWRKTQCMPREVCIDVGKEFGVATNTFFKPPCVSVYRCGGCCNSEGLQCMNTSTSYLSKTLFEITVPLSQGPKPVTISFANHTSCRCMSKLDVYRQVHSIIRR
Turning to B2, the glycolytic flux entry with HDLECs is on record as “increased glycolytic flux, albeit to a lesser extent than FGF2”. Also, the “glycolytic enzyme (HK2) expression” value in test [1] is listed as “increased HK2 expression without affecting other enzymes”.

B3: sFGFR1-IIIC: soluble pan-FGF receptor trap, delivered by adenovirus (protein, UniProt P11362 22-376, looked up)
extracellular domain: RPSPTLPEQAQPWGAPVEVESFLVHPGDLLQLRCRLRDDVQSINWLRDGVQLAESNRTRITGEEVEVQDSVPADSGLYACVTSSPSGSDTTYFSVNVSDALPSSEDDDDDDDSSSEEKETDNTKPNRMPVAPYWTSPEKMEKKLHAVPAAKTVKFKCPSSGTPNPTLRWLKNGKEFKPDHRIGGYKVRYATWSIIMDSVVPSDKGNYTCIVENEYGSINHTYQLDVVERSPHRPILQAGLPANKTVALGSNVEFMCKVYSDPQPHIQWLKHIEVNGSKIGPDNLPYVQILKTAGVNTTDKEMEVLHLRNVSFEDAGEYTCLAGNSIGLSHHSAWLTVLEALEERPAVMTSPLYLE
modifications: extracellular domain IIIc isoform, adenovirus-delivered
With B3, the “FGF2-induced ERK activation” value in test [2] is listed as “inhibited FGF2-induced ERK activation to the same extent as DN-FGFR1”. Also, the “tail skin lymphatic formation” value in test [3] is reported as “significant inhibition of tail skin lymphatic formation”.

B4: VEGFD: Human VEGFD growth factor purchased from Peprotech (protein, UniProt O43915 89-205, looked up)
Vascular endothelial growth …: FAATFYDIETLKVIDEEWQRTQCSPRETCVEVASELGKSTNTFFKPPCVNVFRCGGCCNEESLICMNTSTSYISKQLFEISVPLTSVPELVPVKVANHTGCKCLPTAPRHPYSIIRR
With B4, in the test on HDLECs, the glycolytic flux entry was “no effect”.
